Source: patent US20100229252, “MEGANUCLEASE VARIANTS CLEAVING A DNA TARGET SEQUENCE FROM THE HUMAN HEMOGLOBIN BETA GENE AND USES THEREOF” (CELLECTIS, published 2010)

T1: I-CreI heterodimer HBB8.3_L3 / HBB8.4_A4 (Chlamydomonas reinhardtii, UniProt P05725;P05725 SEQ:1-167,SEQ:1-167)
T1 chain 1: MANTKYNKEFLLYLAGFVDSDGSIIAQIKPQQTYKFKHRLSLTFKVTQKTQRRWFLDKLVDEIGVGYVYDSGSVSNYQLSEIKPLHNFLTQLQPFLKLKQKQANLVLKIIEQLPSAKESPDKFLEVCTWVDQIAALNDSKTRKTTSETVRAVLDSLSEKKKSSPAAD
T1 chain 2: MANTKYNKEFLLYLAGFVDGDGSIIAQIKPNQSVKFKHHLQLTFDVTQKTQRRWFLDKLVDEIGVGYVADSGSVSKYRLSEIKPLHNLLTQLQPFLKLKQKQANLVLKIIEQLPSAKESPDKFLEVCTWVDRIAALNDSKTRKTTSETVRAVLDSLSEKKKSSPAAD

T2: I-CreI heterodimer HBB8.3_B3 / HBB8.4_B4 (Chlamydomonas reinhardtii, UniProt P05725;P05725 SEQ:1-167,SEQ:1-167)
T2 chain 1: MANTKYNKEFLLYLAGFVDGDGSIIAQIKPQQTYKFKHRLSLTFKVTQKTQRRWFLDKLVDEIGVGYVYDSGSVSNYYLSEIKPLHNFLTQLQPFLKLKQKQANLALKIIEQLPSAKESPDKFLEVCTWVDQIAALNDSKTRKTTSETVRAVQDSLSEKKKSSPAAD
T2 chain 2: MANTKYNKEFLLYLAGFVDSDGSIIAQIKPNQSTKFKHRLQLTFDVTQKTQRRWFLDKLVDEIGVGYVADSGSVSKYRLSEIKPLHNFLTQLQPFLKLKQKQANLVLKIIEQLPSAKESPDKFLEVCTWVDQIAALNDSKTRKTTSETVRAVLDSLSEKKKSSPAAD

T3: I-CreI heterodimer HBB8.3_A3 / HBB8.4_C4 (Chlamydomonas reinhardtii, UniProt P05725;P05725 SEQ:1-167,SEQ:1-167)
T3 chain 1: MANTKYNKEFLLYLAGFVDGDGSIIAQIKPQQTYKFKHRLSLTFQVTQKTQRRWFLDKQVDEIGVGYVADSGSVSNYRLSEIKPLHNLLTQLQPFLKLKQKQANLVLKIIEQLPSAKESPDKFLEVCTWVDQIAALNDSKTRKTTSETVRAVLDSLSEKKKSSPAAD
T3 chain 2: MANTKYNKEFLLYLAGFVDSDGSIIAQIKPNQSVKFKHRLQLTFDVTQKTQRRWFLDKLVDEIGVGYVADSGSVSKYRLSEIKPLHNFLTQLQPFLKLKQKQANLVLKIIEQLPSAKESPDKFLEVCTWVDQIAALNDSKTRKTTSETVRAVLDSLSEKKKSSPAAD

T4: I-CreI heterodimer HBB8.3_C3 / HBB8.4_D4 (Chlamydomonas reinhardtii, UniProt P05725;P05725 SEQ:1-167,SEQ:1-167)
T4 chain 1: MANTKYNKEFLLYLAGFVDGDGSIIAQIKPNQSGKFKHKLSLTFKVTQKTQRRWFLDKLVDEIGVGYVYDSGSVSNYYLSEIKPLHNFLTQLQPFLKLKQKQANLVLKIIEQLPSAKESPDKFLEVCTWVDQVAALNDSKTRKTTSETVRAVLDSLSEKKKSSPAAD
T4 chain 2: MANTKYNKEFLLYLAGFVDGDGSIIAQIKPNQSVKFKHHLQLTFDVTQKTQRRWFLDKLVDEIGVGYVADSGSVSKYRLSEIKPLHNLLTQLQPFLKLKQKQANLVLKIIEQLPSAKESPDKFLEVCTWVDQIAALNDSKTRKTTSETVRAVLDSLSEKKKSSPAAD

T5: I-CreI heterodimer HBB8.3_E3 / HBB8.4_A4 (Chlamydomonas reinhardtii, UniProt P05725;P05725 SEQ:1-167,SEQ:1-167)
T5 chain 1: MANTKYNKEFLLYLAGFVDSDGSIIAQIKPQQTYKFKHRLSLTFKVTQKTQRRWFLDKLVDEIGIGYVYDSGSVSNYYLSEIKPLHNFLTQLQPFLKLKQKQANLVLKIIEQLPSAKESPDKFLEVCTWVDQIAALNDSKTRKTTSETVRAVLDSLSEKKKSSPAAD
T5 chain 2: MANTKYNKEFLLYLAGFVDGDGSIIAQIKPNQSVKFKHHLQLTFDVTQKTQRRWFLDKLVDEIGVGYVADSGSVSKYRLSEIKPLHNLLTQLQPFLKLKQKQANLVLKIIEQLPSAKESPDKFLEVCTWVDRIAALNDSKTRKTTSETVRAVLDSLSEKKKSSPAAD

T6: I-CreI heterodimer HBB8.3_I3 / HBB8.4_B4 (Chlamydomonas reinhardtii, UniProt P05725;P05725 SEQ:1-167,SEQ:1-167)
T6 chain 1: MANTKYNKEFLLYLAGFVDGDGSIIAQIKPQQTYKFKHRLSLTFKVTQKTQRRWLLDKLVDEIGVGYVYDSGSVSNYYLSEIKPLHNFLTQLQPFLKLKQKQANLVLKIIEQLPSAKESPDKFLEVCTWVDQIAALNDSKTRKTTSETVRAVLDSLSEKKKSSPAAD
T6 chain 2: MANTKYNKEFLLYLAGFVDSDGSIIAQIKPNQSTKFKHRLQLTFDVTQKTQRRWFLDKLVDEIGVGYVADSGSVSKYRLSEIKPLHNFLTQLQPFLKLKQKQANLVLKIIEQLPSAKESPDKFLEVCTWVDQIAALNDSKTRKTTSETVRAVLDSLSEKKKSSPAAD

T7: I-CreI heterodimer HBB8.3_D3 / HBB8.4_D4 (Chlamydomonas reinhardtii, UniProt P05725;P05725 SEQ:1-167,SEQ:1-167)
T7 chain 1: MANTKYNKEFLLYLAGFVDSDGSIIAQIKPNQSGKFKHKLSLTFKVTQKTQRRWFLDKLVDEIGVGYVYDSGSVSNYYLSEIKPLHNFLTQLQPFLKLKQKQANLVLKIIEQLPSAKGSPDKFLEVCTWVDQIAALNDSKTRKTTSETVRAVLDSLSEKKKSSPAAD
T7 chain 2: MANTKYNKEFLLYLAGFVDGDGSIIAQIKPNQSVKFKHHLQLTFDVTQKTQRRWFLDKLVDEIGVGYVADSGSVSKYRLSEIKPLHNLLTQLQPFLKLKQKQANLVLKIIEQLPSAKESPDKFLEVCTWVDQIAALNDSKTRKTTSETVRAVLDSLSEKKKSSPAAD

B1: HBB8 (dsDNA)
DNA 1: CTGACTCCTGTGGAGAAGTCTG
DNA 2: CAGACTTCTCCACAGGAGTCAG
B2: HBB6 (dsDNA)
DNA 1: CTGACTCCTGAGGAGAAGTCTG
DNA 2: CAGACTTCTCCTCAGGAGTCAG

What was measured:
Assay in all cases: cell_activity; CHO extrachromosomal LacZ assay
[1] = biological target: T1, I-CreI heterodimer HBB8.3_L3 / HBB8.4_A4
[2] = biological target: T2, I-CreI heterodimer HBB8.3_B3 / HBB8.4_B4
[3] = biological target: T3, I-CreI heterodimer HBB8.3_A3 / HBB8.4_C4
[4] = biological target: T4, I-CreI heterodimer HBB8.3_C3 / HBB8.4_D4
[5] = biological target: T5, I-CreI heterodimer HBB8.3_E3 / HBB8.4_A4
[6] = biological target: T6, I-CreI heterodimer HBB8.3_I3 / HBB8.4_B4
[7] = biological target: T7, I-CreI heterodimer HBB8.3_D3 / HBB8.4_D4

Row | Binder | activity [1] | activity [2] | activity [3] | activity [4] | activity [5] | activity [6] | activity [7]
1 | B1 | 2.32 absorbance units | 2.29 absorbance units | 1.56 absorbance units | 0.72 absorbance units | 2.52 absorbance units | 2.26 absorbance units | 2 absorbance units
2 | B2 | 1.96 absorbance units | 1.21 absorbance units | 0.68 absorbance units | 0.37 absorbance units | 2.04 absorbance units | 1.88 absorbance units | 1.09 absorbance units
